Assay [1] addresses T1, EGFR (UniProt P00533 25-1210, limits assumed).
T1 construct: whole, on cells; the cell lines are human tumor lines
Put plainly: flow cytometry, serial dilution on LIM1215 cells (EGFR-expressing), PE anti-human Fc detection. The protocol: (§1) Binding analysis of the trivalent, bispecific antibodies was performed by flow cytometry using tumor cell lines with different EGFR-expression levels (FIG. 20) (Table 12). Adherent cells were washed with PBS and shortly trypsinized at 37° C. Trypsin was quenched with FCS-containing medium and removed by centrifugation (500×g, 5 min.). Target cells (FaDu, LIM1215, SKBR-3, T-47-D, MCF-7 and Jurkat cells) at 1×10⁵ cells/well were incubated with a serial dilution of trivalent, bispecific antibodies for 1 h at 4° C. After removing excess of recombinant protein by washing with PBA (PBS, 2% FBS, and 0.02% sodium azide), bound protein was detected using PE-conjugated anti-human Fc mAb (Jackson ImmunoResearch Laboratories Inc). Fluorescence was measured using MACSquant VYB (Miltenyi Biotec) and data were analyzed using FlowJo (Tree Star). Relative median fluorescence intensities (MFI) were calculated as followed: relative MFI=((MFIₛₐₘₚₗₑ-(MFIdetection-MFIcells))/MFIcells).
(In general: In flow cytometry, cells or beads pass a laser one at a time.)

Assay [2] concerns the target T1, EGFR. Put plainly: flow cytometry, serial dilution on FaDu cells (EGFR-expressing), PE anti-human Fc detection. The protocol:
as §1

In assay [3] the target is T1, EGFR. Put plainly: flow cytometry, serial dilution on MCF-7 cells (EGFR-expressing), PE anti-human Fc detection. The protocol: as §1
In assay [4] the target is T1, EGFR. Put plainly: flow cytometry, serial dilution on T-47-D cells (EGFR-expressing), PE anti-human Fc detection. As for the experimental part: as §1
Assay [5] addresses T1, EGFR. In words: flow cytometry, serial dilution on SKBR-3 cells (EGFR-expressing), PE anti-human Fc detection. The protocol:
as §1

The target in assay [6] is T2, CD3 (UniProt P07766 23-207).
T2 construct: whole, on cells; on cells it stands in the TCR/CD3 complex; also called CD3 on Jurkat cells
Put plainly: flow cytometry, serial dilution on Jurkat cells (CD3-expressing), PE anti-human Fc detection. The protocol: (§2) Binding of trivalent, bispecific fusion proteins to CEA-expressing (LIM1215) and CD3-expressing (Jurkat) cell lines was analyzed by flow cytometry. 2×10⁵ cells/well were incubated with a serial dilution of trivalent, bispecific antibodies for 1 h at 4° C. followed by detection using a PE-conjugated anti-human Fc antibody (Jackson ImmunoResearch Laboratories Inc). […] Regarding the CEA-expressing cell line LIM1215, the trivalent, bispecific antibodies bound with EC₅₀ values in the nanomolar range (FIG. 16A) (Table 9).

Assay [7] addresses T3, CEA (UniProt P06731 35-685).
T3 construct: whole, on cells
T3 sequence (looked up): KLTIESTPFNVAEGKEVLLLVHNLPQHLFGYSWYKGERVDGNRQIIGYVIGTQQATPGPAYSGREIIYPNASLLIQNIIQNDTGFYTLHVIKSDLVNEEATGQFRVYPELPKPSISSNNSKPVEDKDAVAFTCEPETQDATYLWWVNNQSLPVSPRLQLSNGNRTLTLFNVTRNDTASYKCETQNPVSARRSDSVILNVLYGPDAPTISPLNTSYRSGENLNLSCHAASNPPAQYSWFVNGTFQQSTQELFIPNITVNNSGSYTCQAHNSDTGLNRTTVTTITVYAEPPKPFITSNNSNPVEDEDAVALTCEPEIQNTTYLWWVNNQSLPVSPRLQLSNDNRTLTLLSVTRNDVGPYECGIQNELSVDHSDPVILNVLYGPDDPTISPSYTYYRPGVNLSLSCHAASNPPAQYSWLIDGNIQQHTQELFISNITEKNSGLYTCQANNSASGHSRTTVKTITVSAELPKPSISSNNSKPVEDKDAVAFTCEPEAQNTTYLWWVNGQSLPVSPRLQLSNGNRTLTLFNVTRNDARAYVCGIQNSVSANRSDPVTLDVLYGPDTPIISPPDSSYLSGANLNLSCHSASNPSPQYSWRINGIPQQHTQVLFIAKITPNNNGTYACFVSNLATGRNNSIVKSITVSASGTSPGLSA
Put plainly: flow cytometry, serial dilution on LIM1215 cells (CEA-expressing), PE anti-human Fc detection. The protocol: as §2

B1: scDb/Fab-Fc (1-1)+2, trivalent bispecific anti-EGFRxanti-CD3 (bispecific antibody)
chain: EVQLVESGGGLVQPGGSLRLSCAASGFSLTNYGVHWVRQAPGKGLEWLGVIWSGGNTDYNTPFTSRFTISRDNSKNTLYLQMNSLRAEDTAVYYCARALTYYDYEFAYWGQGTTVTVSSGGGGSDIQLTQSPSFLSASVGDRVTITCRASQSIGTNIHWYQQKPGKAPKLLIKYASESISGVPSRFSGSGSGTEFTLTISSLQPEDFATYYCQQNNNWPTTFGAGTKLEIKRGGGGSGGGGSGGGGSEVQLVESGGGLVQPGGSLRLSCAASGFSLTNYGVHWVRQAPGKGLEWLGVIWSGGNTDYNTPFTSRFTISRDNSKNTLYLQMNSLRAEDTAVYYCARALTYYDYEFAYWGQGTTVTVSSGGGGSDIQLTQSPSFLSASVGDRVTITCRASQSIGTNIHWYQQKPGKAPKLLIKYASESISGVPSRFSGSGSGTEFTLTISSLQPEDFATYYCQQNNNWPTTFGAGTKLEIKRAAADKTHTCPPCPAPPVAGPSVFLFPPKPKDTLMISRTPEVTCVVVDVSHEDPEVKFNWYVDGVEVHNAKTKPREEQYNSTYRVVSVLTVLHQDWLNGKEYKCKVSNKGLPSSIEKTISKAKGQPREPQVCTLPPSRDELTKNQVSLSCAVKGFYPSDIAVEWESNGQPENNYKTTPPVLDSDGSFFLVSKLTVDKSRWQQGNVFSCSVMHEALHNHYTQKSLSLSPGK
heavy: QVQLVQSGAEVKKPGSSVKVSCKASGGTFSGYTMNWVRQAPGQGLEWMGLINPYKGVSTYNGKFKDRVTITADKSTSTAYMELSSLRSEDTAVYYCARSGYYGDSDWYFDVWGQGTLVTVSSASTKGPSVFPLAPSSKSTSGGTAALGCLVKDYFPEPVTVSWNSGALTSGVHTFPAVLQSSGLYSLSSVVTVPSSSLGTQTYICNVNHKPSNTKVDKKVEPKSCDKTHTCPPCPAPPVAGPSVFLFPPKPKDTLMISRTPEVTCVVVDVSHEDPEVKFNWYVDGVEVHNAKTKPREEQYNSTYRVVSVLTVLHQDWLNGKEYKCKVSNKGLPSSIEKTISKAKGQPREPQVYTLPPCRDELTKNQVSLWCLVKGFYPSDIAVEWESNGQPENNYKTTPPVLDSDGSFFLYSKLTVDKSRWQQGNVFSCSVMHEALHNHYTQKSLSLSPGK
light: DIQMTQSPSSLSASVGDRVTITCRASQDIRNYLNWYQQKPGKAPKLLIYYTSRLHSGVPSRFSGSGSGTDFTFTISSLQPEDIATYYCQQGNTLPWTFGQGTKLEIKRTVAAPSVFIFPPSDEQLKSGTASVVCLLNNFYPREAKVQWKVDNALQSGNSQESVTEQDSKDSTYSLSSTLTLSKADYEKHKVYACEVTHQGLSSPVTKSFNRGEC
As for B1, the EC50 (commonly the concentration giving half of the maximal effect) in assay [1] came to 2.6 nM; in assay [2], 3.6 nM; in assay [3], 0.5 nM; in assay [4], 0.2 nM; in assay [5], 0.8 nM.

B2: scDb/Fab-Fc (1-1)+2, trivalent bispecific anti-CEAxanti-CD3 (bispecific antibody)
chain: QVKLQQSGAELVRSGTSVKLSCTASGFNIKDSYMHWLRQGPEQGLEWIGWIDPENGDTEYAPKFQGKATFTTDTSSNTAYLQLSSLTSEDTAVYYCNEGTPTGPYYFDYWGQGTTVTVSSGGGGSDIELTQSPAIMSASPGEKVTITCSASSSVSYMHWFQQKPGTSPKLWIYSTSNLASGVPARFSGSGSGTSYSLTISRMEAEDAATYYCQQRSSYPLTFGAGTKLELKRGGGGSGGGGSGGGGSQVKLQQSGAELVRSGTSVKLSCTASGFNIKDSYMHWLRQGPEQGLEWIGWIDPENGDTEYAPKFQGKATFTTDTSSNTAYLQLSSLTSEDTAVYYCNEGTPTGPYYFDYWGQGTTVTVSSGGGGSDIELTQSPAIMSASPGEKVTITCSASSSVSYMHWFQQKPGTSPKLWIYSTSNLASGVPARFSGSGSGTSYSLTISRMEAEDAATYYCQQRSSYPLTFGAGTKLELKRAAADKTHTCPPCPAPPVAGPSVFLFPPKPKDTLMISRTPEVTCVVVDVSHEDPEVKFNWYVDGVEVHNAKTKPREEQYNSTYRVVSVLTVLHQDWLNGKEYKCKVSNKGLPSSIEKTISKAKGQPREPQVCTLPPSRDELTKNQVSLSCAVKGFYPSDIAVEWESNGQPENNYKTTPPVLDSDGSFFLVSKLTVDKSRWQQGNVFSCSVMHEALHNHYTQKSLSLSPGK
heavy: B1 heavy
light: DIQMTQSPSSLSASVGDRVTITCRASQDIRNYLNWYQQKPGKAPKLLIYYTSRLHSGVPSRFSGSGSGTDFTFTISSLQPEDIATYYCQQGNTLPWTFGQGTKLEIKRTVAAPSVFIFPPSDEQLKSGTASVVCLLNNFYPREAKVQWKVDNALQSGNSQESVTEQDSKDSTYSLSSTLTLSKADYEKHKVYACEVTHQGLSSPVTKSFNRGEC
notes: also called scDbCEAxCEA-Fc(hole)Δab + FdhuU3-Fc(knob)Δab + VLhuU3-CLK
Take B2: the EC50 in assay [6] is 0.8 nM; in assay [7] it was 8.5 nM.

B3: scDb/scFv-Fc (1-1)+2, trivalent bispecific anti-EGFRxanti-CD3 (bispecific antibody)
chain 1: B1 chain
chain 2: DIQMTQSPSSLSASVGDRVTITCRASQDIRNYLNWYQQKPGKAPKLLIYYTSRLHSGVPSRFSGSGSGTDFTFTISSLQPEDIATYYCQQGNTLPWTFGQGTKLEIKRGGGGSGGGGSGGGGSQVQLVQSGAEVKKPGSSVKVSCKASGGTFSGYTMNWVRQAPGQGLEWMGLINPYKGVSTYNGKFKDRVTITADKSTSTAYMELSSLRSEDTAVYYCARSGYYGDSDWYFDVWGQGTLVTVSSAAADKTHTCPPCPAPPVAGPSVFLFPPKPKDTLMISRTPEVTCVVVDVSHEDPEVKFNWYVDGVEVHNAKTKPREEQYNSTYRVVSVLTVLHQDWLNGKEYKCKVSNKGLPSSIEKTISKAKGQPREPQVYTLPPCRDELTKNQVSLWCLVKGFYPSDIAVEWESNGQPENNYKTTPPVLDSDGSFFLYSKLTVDKSRWQQGNVFSCSVMHEALHNHYTQKSLSLSPGK
notes: also called scDbhu225xhu225-Fc(hole)Δab + scFvhuU3-Fc(knob)Δab
As for B3, the EC50 in assay [1] was found to be 4 nM; in assay [2] it was 8.9 nM; in assay [3], 0.8 nM; in assay [4] it was 0.4 nM; in assay [5], 2.8 nM.

B4: scDb/scFv-Fc (1-1)+2, trivalent bispecific anti-CEAxanti-CD3 (bispecific antibody)
chain 1: B2 chain
chain 2: B3 chain 2
notes: also called scDbCEAxCEA-Fc(hole)Δab + scFvhuU3-Fc(knob)Δab
B4: the EC50 in assay [6] stood at 2.8 nM; in assay [7], 2.4 nM.

Values taken from US20220396635A1 (UNIVERSIT T STUTTGART, published 2022).
